Assay results: the nanobody polyreactivity screen of Harvey et al. (2022)

Assay: yeast display, Sf9 membrane polyspecificity reagent, FACS + sequencing; frameworks hold sequencing errors
Procedure, shortened: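 Polyreactivity labels are assigned by the sorting gate from which each nanobody was recovered. The gates were low and high (top ~1%), set on anti-HA fluorescence for expression and streptavidin fluorescence for reagent binding. Before sorting, galactose-induced (36–48 hours) yeast display cells were stained for 1 hour at 4 °C with 10% biotinylated, detergent-solubilized Sf9 membrane reagent.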

| Sequence | polyreactivity (PSR sort gate) |
| --- | --- |
| QVQLVESGRGLVQAGGSLRLSCAASGSIFGYYAMGWYRQAPGKERELVAAISRSGGSTYYADSVKGRFTISRDNAKNTVYLQMNSLKPEDTAVYYCAADDYPYGNYYWGQGTQVTVSS | high polyreactivity |
| QVQLVESGGGLVQAGGSLRISCAASGIIFSVYAMAWYRQAPGKERELVAAISYSGGRTYYADSVKGRFTISRDNAKNTVYLQMNSLKPEDTAVYYCAAGFSLYLGFEYWGQGTQVTVSS | high polyreactivity |
| QVQLVESGGGLVQAGGILRLSCPASGIIFDGNVMGWYRQAPGKEREFVASISISGGSTSYADSVKGRFTISRDNAKNTVYLQMNSLKPEDTAVYYCNTDVGYGRVWRWRYHGDYWGQGTQVTVSS | low polyreactivity |
| QVQLVESGGGLVQAGGSLRLSCAASGNIRYYAMGWYRQAPGKERELVAAITRRSGNTYYADSVKGRFTISRDNAKNTVYLQMNSLKPEDTAVYYCAVVLYTYLTPYYEMDYWGQGTQVTVSS | high polyreactivity |
| QVQLVESGGGLVQAGGSLRLSCAASGRIIGNYAMGWYRPAPGKERELVARISQSGGSTYYADSVKGRFTISRDHAKNSLYLQMNSLKPEDTAVYYCAKRGRYRYDRDNRYEYWGQGTQVNVSS | low polyreactivity |
| QVQLVESGGGLVQAGGSLRLSCAASGRIFGLNAMGWYRQAPGQERELVAAIDIIGGSTYYADSVKGRFTISRDNAKNTVYLQMNSLKPEDTAVYNCAAEGDFWRFVEYDYWGQGTQVTVSS | low polyreactivity |
| QVQLVESGGGLVQAGGSLRLICAASGRTFAGNAMGWYRQAPGKERELVAAISQGGGYTYYADSVKGRFTISRDNAKNNVYLQMNSLKPEDTAVYYCAAEIPRRWASFATLWYDYLGQGTQVTVSS | low polyreactivity |
| QVQLVESGGGLVQAGGSLRLSCAASGSTFSKNAMGWYRQAPGKERELVAAIRSRGGSTYYADSVKGRFTISRDNAKNTVYLQMNSLKPEDTAVYYCNKVRAYEGDYWGQGTQVTVTS | high polyreactivity |
| QVHLVESGGGLVQAGGSLRLSCAASGSTFKIYAMGWYRQAPGKERELVAAITRGGSTNYADSVKGRFTISRDNAKNTVYLQMNSLKPEDTAVYYCAASYWYRRYGTYTYDYWGQGTQVTVSS | high polyreactivity |
| QVQLVESGGGLVQAGGSLRLSCAASGRTFKTYSMGWYRQAPGKERELVASISGSGSSTYYADSVKGRFTISRDNAKNSVYLQMKSRKPEDTAVYYCNAARSQGYEYATYGYWGQGTQVTVSS | low polyreactivity |
| QVQLVESGGGLVQAGGSLRLSCAASGIIFYYYAMGWYRQAPGKERELVAAITGTGSRTYYADSVKGRFTISRDNAKNTVYLQMNSLKPEDTAVYYCNARSFATGSKVPARGYWGQGTQVTVSS | high polyreactivity |
| QVQLVESGGGLVQAGGSLRLSCAASGSTIQQYAMGWYRQAPGKEREFVAAISWRGGRTYYADSVKGRFTISRDNAKNTVSLQMNSLKPEDTAVYYCAVDPSIYRLSAYYYDYWGQGTQVTVSS | low polyreactivity |
| QDQLVESVGGLNQAGGSLRLSCAASGIIFYPYTIGWYRQAPGKERELVAAIRQSGTSTYYADSVKGRFTISRDNAKNTVYLQMNSLKPEDTAVYYCNVEPYQPPGHDRSYAYDYWGQGTQVTVSS | low polyreactivity |
| QVRLVESGGGLVQAGGSLRLSCAASGSTFWSYAMGWYRQAPGKERELVAAISWSGDSTYYADSVKGRFTISRDNAKNTVYLQMNSLKPEDTAVYYCAADYTGSFYTYDYWGQGTQVTVSS | low polyreactivity |
| QVQLVESGGGLVQAGGSLRLSCAASGSTFELNAMGWYRQAPGKERELVAVITISGGNTYYADSVKGRFTISRDNAKNTVDLPMNSLKPDDTAVYYCAARPITTSITRYGFWGQGTQVTVSS | high polyreactivity |
| QVQLVESGGGLVQAGGSLRLSCAASGRTFLSYAMGWYRQAPGKERELVATITRRGGSTYYADSVKGRFTISRDNAKNTVYLQMNSLKPEDTAVYYCAAYYRQYSSSEFGYWGQGTQVTVSS | high polyreactivity |
| QVQLVESGGGLVQAGGSLRLSCAASGRIFRYYAMGWYRQAPGKERELVARITWSGGRTYYADSVKGRFTISRDNAKNTVYLQMNSLKPEDTAVYYCNARATSGGDYWGQGTQVTVSS | high polyreactivity |
| QVQLVESGGGLVQAGGSLRLSCAASGRTITFYTMGWYRQAPVKERELVARITGGGSTFYADSVKGRFTISRDNAKNTVYLLMNSLKPEDTAVYYCAREYASAFWYPMYYWGQGTQVNVSS | low polyreactivity |
| QVQLVESGGVLVQAGGSLRLSCAASGSTFYTYAMGWYRQAPGKERELVAAITRRGGRTYYADSVKGRFTISRDIAKNTVYLQMNSLKPEDTSVYYCAAYPWATCYGEWGQGTQVTVSS | high polyreactivity |
| QVQLVESGGGLVQAGGSLRLSCAASGRTFRGNAMGWYRQAPGKEREVVAAISWSGGNTYYADSVKGRFTISRDNAKNTVYLQMNSLKPEDTAVYYCAAGSYWSPYGQSFWPKYDYWGQGTQVTVSS | high polyreactivity |
| QVQLVESGGGLVQAGGSLRLSCAASGSTFPYYAMGWYRQEPGKERELVASIRKRGGGTYYADSVKGRFTISRDNAKNTVYLQMNSLKPEDTAVYYCAVRVYQFRYTGYDYWGQGTQVTVSS | high polyreactivity |
| QVQLVESGGGLDQAGGSLRLSCAASGRIFRFYAMGWYRQATGKERELVAAISSRGGSTYYADSVKGRFTISRDNAKNTFYLQMNSLKPEDTAVYYCAKKTWRDYSYNYWGQGTQVTVSS | high polyreactivity |
| QVQLVESGGGLVQAGGSLRLSCAASGRTFVRNAMGWYRQAPGKERELVAAISVDGSSTYYADSVKGRFTISRDNAKNTVYLQMNSLKPEDTAVYYCNADWDYRDFYDITYDYWGQGTQVTVSS | low polyreactivity |
| QVQLVESGGGLVQAGGSLRLSCAASGFTLDNYAIGWYRPAPGKERELVAASSWSGGRTYYADSVKGRFTISRDNAKNTVYLQMNSLKPEDTAVYYCYASPYGRKYGILADGDYWGQGTQVTVSS | high polyreactivity |
| QVELVESGGGLVQAGGSLRLSCAASGYIFNYYAMGWYRQAPGKERELVAAISTSGGSTYYADSVKGRFTISRDNAKNTVYLQMNSLKPEDTAVYYCAAVDYKANGYGYWGQGTQVTVSS | high polyreactivity |
| QVQLVESGGGLVQAGGSLRLSCAASGSIFGYYTMGWYRQAPGKERELVATINWSGGNTYYADSVKGRFTISRDNAKNTVYLQMNSLKPEDTAVYYCATRPRRGTSENGYWGQGTQVTVSS | high polyreactivity |
| QVQLVESGGGLVQAGGSLRLSCAASGSILGYYAMGWYRQAPGKERELVAAITWRGGRTYYADSVKGRFTISRDNAMNTVYLQMNSLKPEDTAVYYCAKVPSGYKGYDYWGQGTQVTVSS | high polyreactivity |
| QVQLVESGGGLVQAGGSLRLSCAASGGIFSYYAMGWYRQAPGKEREFVAAIDWGGGSTYYADSVKGRFTISRDNAKNTVYLQMNSLKPEDTAVYYCAAEIYPIGWDDYDYWGQGTQVTVSS | low polyreactivity |
| QVQLVESGGGLVQAGGSLRLSCAASGRTFRVNAMGWYRQAPGKERELVAAITSSGGNTYADSVKGRFTISRDNAKNTVYLQMNSLKPEDTAVYYCAAVSSTRGDYWGQGTQVTVSS | high polyreactivity |
| QVQLVESGGGLVQAGGSLRLSCAASGITFGSYAMGWYRQAPGKEREFVAAISLSGGNTYYADSVKGRFTISRDNAKNTVYLQMNSLKPEDTAVYYCAADYEYSGYGYWGQGTQVTVSS | high polyreactivity |
